Biological target: T1, human CSF3 protein (human, UniProt P09919 31-207)
T1 construct: also called G-CSF; human colony-stimulating factor 3
T1 sequence: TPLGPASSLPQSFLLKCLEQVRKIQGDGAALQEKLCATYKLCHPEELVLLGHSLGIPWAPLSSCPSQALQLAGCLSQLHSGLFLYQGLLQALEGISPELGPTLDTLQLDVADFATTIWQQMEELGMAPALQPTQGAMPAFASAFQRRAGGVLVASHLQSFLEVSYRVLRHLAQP
Experiment: high-mass MALDI MS of a mixture of Y41 antibody and human CSF3 protein; complexes of one or two CSF3 with one Y41

- binding result: binds
B1: C41 (or Y41) (antibody, human IgG1, kappa, V domains shown)
VH: EMQLVQSGAEARKPGSSVKVSCKASGYTFTNYGISWLRQTPGQGLEWMGWINPNSGGTIYAQKFQGRVTMTRDTPITTAYMELSTLRSEDTAVYYCSRGSGGAVPFDVWGQGTMVTVSS
VL: DIQMTQSPFSLSASVGDRVTITCRASQTISNRLNWYQHKPGKAPKLFIYYASSLQSGVPSRFSGSGSGTDFALTISSLQPEDFATYYCQQGYSSPRTFGQGTKVEIKR
notes: Human IgG1; the CDR numbers printed for Y41 disagree between places; also called 007A06; CSA1241
